From publication PMC12292641

Molecular target: PpbHLH1 (Phalaenopsis pulcherrima)

dual-luciferase assay in tobacco leaves: PpANS promoter activity with PpMYB1 and PpbHLH1 co-expressed, against PpMYB1 alone: 4.7 fold
Substance: PpMYB1 (natural protein)
